Broadly, the stoichiometry N is the number of molecules, sites or subunits per partner or assembly.

The text below walks through data of publication PMC8211825, “Molecular mechanism of calcium induced trimerization of C1q-like domain of otolin-1 from human and zebrafish” (Scientific Reports, 2021).

This data set deals with the molecule itself. The experiment in a line: AUC; sedimentation velocity, c(s) analysis in SEDFIT; 10 mM CaCl2; 10 mM HEPES pH 7.0, 500 mM NaCl, 5% glycerol; 20 °C, 50,000 rpm; protein about 0.1, 0.25 and 0.5 mg/ml; self-association of the gC1q domain into trimers.

Where a chain is given by its changes, count along the chain named. Names and notes keep the numbering of the source. Values joined by “and” are separate entries in the source; they are usually repeats but may differ in a detail not shown here. Equal values may be shown once.

B1: C1q-like domain of otolin-1 from zebrafish (domain or fragment)
chain: not shown
notes: gC1q (C1q-like) domain of zebrafish otolin-1, UniProt A5PN28; printed monomer MW 17.1 kDa; Subcloned in pQE-80 L; also called dOtolC1q; native dOtolC1q
Consider B1, for which the “stoichiometry N” value is 2 and 3.

B2: C1q-like domain of otolin-1 from human (domain or fragment, UniProt A6NHN0 338-473, looked up)
chain: ARVPRSAFSAGLSKPFPPPNIPIKFEKILYNDQGNYSPVTGKFNCSIPGTYVFSYHITVRGRPARISLVAQNKKQFKSRETLYGQEIDQASLLVILKLSAGDQVWLEVSKDWNGVYVSAEDDSIFTGFLLYPEETS
notes: gC1q (C1q-like) domain of human otolin-1, UniProt A6NHN0; printed monomer MW 17.0 kDa; Subcloned in pQE-80 L; The tag is known only from TALON purification and a 6xHis Western blot; also called hOtolC1q; native hOtolC1q
Consider B2, for which the “stoichiometry N” value is 3.

B3: hOtolC1q E470A (domain or fragment, human, UniProt A6NHN0 338-473, looked up)
chain: B2 chain with E133A
notes: gC1q (C1q-like) domain of human otolin-1, UniProt A6NHN0, natural SNP variant E470A (rs3921595); also called E470A variant; natural variant hOtolC1q E470A; source: 0.1% NP40 substitute added to the cell suspension
On to B3, for which the “stoichiometry N” value stood at 3.
